Source: paper PMC5566574 (Frontiers in Immunology, 2017)
Each block holds one binder with its values, some of them ahead of it.

Key:
[1] = target: human interleukin 12 (human, UniProt P29459;P29460); assay: cell-based or functional assay
[2] = target: T1, human interleukin 23 (Homo sapiens, UniProt Q9NPF7;P29460, saccharidic chain of the complex type at Asn 200 (GlcNAc2-Man3 core seen in the crystal)); assay: cell-based or functional assay
[3] = target: T2, cynomolgus monkey (cyno) IL23 (Macaca fascicularis (cynomolgus monkey), UniProt H6WS56;H6WS55); assay: SPR; species cross-reactivity of the monovalent nanobodies on cyno IL23 and mouse IL23; off-rates compared; set-up not described
T2 construct: interleukin 23 subunit p19, cynomolgus monkey; construct not described; p40 subunit, cynomolgus monkey; source: produced at Ablynx, Ghent/Zwijnaarde, Belgium

[4] = target: T3, mouse (m) IL23 (Mus musculus (Mouse)., UniProt Q9EQ14;P43432); assay: as above
T3 construct: interleukin 23 subunit p19, mouse; p40 subunit, mouse; source: bought: R&D Systems Inc
T3 sequence (Q9EQ14 22-196, chain 1 of 2): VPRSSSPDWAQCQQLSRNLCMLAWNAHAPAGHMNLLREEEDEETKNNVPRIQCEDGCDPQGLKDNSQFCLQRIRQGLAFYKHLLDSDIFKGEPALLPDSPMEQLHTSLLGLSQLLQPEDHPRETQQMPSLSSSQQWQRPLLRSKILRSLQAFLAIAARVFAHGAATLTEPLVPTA
T3 sequence (P43432 23-335, chain 2 of 2): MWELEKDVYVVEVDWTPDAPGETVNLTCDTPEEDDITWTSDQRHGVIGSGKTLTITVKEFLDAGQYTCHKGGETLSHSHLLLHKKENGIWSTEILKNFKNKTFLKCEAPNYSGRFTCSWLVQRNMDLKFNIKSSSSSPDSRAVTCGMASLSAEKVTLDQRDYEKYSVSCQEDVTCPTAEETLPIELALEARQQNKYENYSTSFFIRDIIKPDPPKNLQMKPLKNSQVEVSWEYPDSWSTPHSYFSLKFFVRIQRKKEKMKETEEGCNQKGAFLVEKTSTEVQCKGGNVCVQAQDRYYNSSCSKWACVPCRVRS

[5] = target: T1, human interleukin 23; assay: SPR; Biacore T100; hIL23 covalently bound to a CM5 chip via amine coupling; purified nanobodies 1 to 300 nM injected for 4 min at 45 µl/min; conditions: both partners purified
[6] = target: T4, p40 subunit of human interleukin 23 (human, UniProt P29460, saccharidic chain of the complex type at Asn 200 (GlcNAc2-Man3 core seen in the crystal)); assay: crystal structure; hIL23 with nanobodies 37D5, 124C4 and 22E11; sitting drop, 277 K, 16.5% PEG 20 K, 0.1 M MES pH 5.9; two complexes per asymmetric unit; PDB 4GRW; conditions: both partners purified
T4 construct: p40 subunit shared by IL12 and IL23, human; never handled apart from p19; also called IL12-shared p40 subunit; source: bought as part of hIL23 (R&D Systems Inc. or eBioscience)

[7] = target: T5, biotinylated human interleukin 12 (human, UniProt P29459;P29460, biotin (Sulfo-NHS-LC-Biotin; sites not stated) | biotin (Sulfo-NHS-LC-Biotin; sites not stated)); assay: AlphaScreen or HTRF; serial dilutions of purified nanobody (250 nM to 1 pM) preincubated with 500 pM biotinylated hIL23 or 3 nM biotinylated hIL12; IL23R or IL12Rβ1 on acceptor beads via an antihuman Fc monoclonal antibody; streptavidin donor beads; 1 h at room temperature; conditions: both partners purified
T5 construct: p35 subunit of IL12, human; p40 subunit shared by IL12 and IL23, human; also called biotinylated hIL12; source: bought: R&D Systems Inc; biotinylated using Sulfo-NHS-LC-Biotin (Pierce)

[8] = target: T6, biotinylated human interleukin 23 (human, UniProt Q9NPF7;P29460, biotin (Sulfo-NHS-LC-Biotin; sites not stated) | biotin (Sulfo-NHS-LC-Biotin; sites not stated)); assay: as above; conditions: both partners purified
T6 construct: interleukin 23 subunit p19, human; p40 subunit shared by IL12 and IL23, human; also called biotinylated hIL23; source: bought: eBioscience; biotinylated using Sulfo-NHS-LC-Biotin (Pierce)

[9] = target: T7, IL12Rβ-Fc chimera (human, UniProt P42701 24-545); assay: as above; conditions: both partners purified
T7 construct: interleukin 12 receptor subunit beta 1, human; The materials name it 'IL12Rβ-Fc chimera'; the assay and results name IL12Rβ1 / hIL12Rβ1; also called IL12Rβ1; hIL12Rβ1; source: bought: R&D Systems Inc

[10] = target: T8, biotinylated human interleukin 23 (human, UniProt Q9NPF7 20-189; P29460 23-328, biotin (Sulfo-NHS-LC-Biotin; sites not stated) | biotin (Sulfo-NHS-LC-Biotin; sites not stated)); assay: as above; conditions: both partners purified
T8 construct: interleukin 23 subunit p19, human; p40 subunit shared by IL12 and IL23, human; also called biotinylated hIL23; source: bought: eBioscience; biotinylated using Sulfo-NHS-LC-Biotin (Pierce)
T8 sequence (looked up) 1: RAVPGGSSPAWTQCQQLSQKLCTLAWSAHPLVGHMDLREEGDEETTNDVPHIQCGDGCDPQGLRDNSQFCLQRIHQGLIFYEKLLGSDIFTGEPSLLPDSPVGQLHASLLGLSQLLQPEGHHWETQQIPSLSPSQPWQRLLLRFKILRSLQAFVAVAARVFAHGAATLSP
T8 sequence (looked up) 2: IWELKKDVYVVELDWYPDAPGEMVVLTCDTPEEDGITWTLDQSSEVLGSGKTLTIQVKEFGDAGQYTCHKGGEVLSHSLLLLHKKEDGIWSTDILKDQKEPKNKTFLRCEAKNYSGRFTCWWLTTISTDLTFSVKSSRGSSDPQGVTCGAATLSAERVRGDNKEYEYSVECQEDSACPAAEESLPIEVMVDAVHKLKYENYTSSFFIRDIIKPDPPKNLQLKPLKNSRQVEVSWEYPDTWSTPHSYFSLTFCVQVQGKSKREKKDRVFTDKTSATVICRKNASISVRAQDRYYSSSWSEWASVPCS

[11] = target: T9, p40 subunit of human interleukin 23 (human, UniProt P29460 23-328, saccharidic chain of the complex type at Asn 200 (GlcNAc2-Man3 core seen in the crystal)); assay: crystal structure; hIL23 with nanobodies 37D5, 124C4 and 22E11; sitting drop, 277 K, 16.5% PEG 20 K, 0.1 M MES pH 5.9; two complexes per asymmetric unit; PDB 4GRW; conditions: both partners purified
T9 construct: p40 subunit shared by IL12 and IL23, human; never handled apart from p19; also called IL12-shared p40 subunit; source: bought as part of hIL23 (R&D Systems Inc. or eBioscience)
T9 sequence (looked up): T8 sequence (looked up) 2

B3: biotinylated human interleukin 12 (complex)
chain 1: RNLPVATPDPGMFPCLHHSQNLLRAVSNMLQKARQTLEFYPCTSEEIDHEDITKDKTSTVEACLPLELTKNESCLNSRETSFITNGSCLASRKTSFMMALCLSSIYEDLKMYQVEFKTMNAKLLMDPKRQIFLDQNMLAVIDELMQALNFNSETVPQKSSLEEPDFYKTKIKLCILLHAFRIRAVTIDRVMSYLNAS
chain 2: T8 sequence (looked up) 2
modifications: biotin (Sulfo-NHS-LC-Biotin; sites not stated) | biotin (Sulfo-NHS-LC-Biotin; sites not stated)
notes: p35 subunit of IL12, human; p40 subunit shared by IL12 and IL23, human; also called biotinylated hIL12; source: bought: R&D Systems Inc; biotinylated using Sulfo-NHS-LC-Biotin (Pierce)
binding result [9]: binds

B4: hIL23 receptor (R)-fragment crystallizable region (Fc) (Fc fusion, human, UniProt Q5VWK5 24-355, looked up)
chain: GITNINCSGHIWVEPATIFKMGMNISIYCQAAIKNCQPRKLHFYKNGIKERFQITRINKTTARLWYKNFLEPHASMYCTAECPKHFQETLICGKDISSGYPPDIPDEVTCVIYEYSGNMTCTWNAGKLTYIDTKYVVHVKSLETEEEQQYLTSSYINISTDSLQGGKKYLVWVQAANALGMEESKQLQIHLDDIVIPSAAVISRAETINATVPKTIIYWDSQTTIEKVSCEMRYKATTNQTWNVKEFDTNFTYVQQSEFYLEPNIKYVFQVRCQETGKRYWQPWSSLFFHKTPETVPQVTSKAFQHDTWNSGLTVASISTGHLTSDNRGDIG
notes: interleukin 23 receptor, human; also called hIL23R-Fc; source: bought: R&D Systems Inc
binding result [10]: binds

B5: nanobody 124C4 (VHH)
VHH: EVQLVESGGGLVQPGGSLRLSCAASGFTLDDYAIAWFRQAPGKEREGVSGIDSGDGSAYYADSVKGRFTISSDNAKNTVYLQMNSLRPEDTAVYYCARVRTGWGLNAPDYAMDYWGKGTLVTVSS
notes: nanobody 124C4 (llama VHH); both add C-terminal c-myc and hexa-histidine tags; also called p19− nanobody 124C4; source: E. coli TG1, periplasmic extract (screening); purified (Ni-NTA; Superdex75 for crystallization); not shown: c-myc, C-terminal, kept
binding result [3]: binds | binding result [4]: binds | Kd [5]: 3.3 nM | koff [5]: 0.00033 s⁻¹ | kon [5]: 100000 M⁻¹ s⁻¹ | binding result [6]: binds

Further lines, results first:

IC50 of block of hIL12-dependent proliferation of PHA blasts (4 pM hIL12 for stimulation; data not shown) [1]: 95 pM | IC50 of inhibition of mIL22 secretion by mouse splenocytes stimulated with 19 pM hIL23 [2]: 186 pM | binding result [3]: binds | binding result [4]: no binding | koff [5]: 0.00023 s⁻¹ | binding result [6]: binds | IC50 [7]: 1.3 nM
B1: nanobody 22E11 (VHH)
VHH: EVQLVESGGGLVQAGGSLRLSCAASGRTFSWSAVGWFRQAPGKEREFVAAIRWSGGSPYYADSVKDRFTISRDNAKNTVYLQMNSLRPEDTAVYLCGETSLFPTSRGSHYDTWGQGTQVTVSS
notes: nanobody 22E11 (llama VHH); both add C-terminal c-myc and hexa-histidine tags; also called p40+ nanobody 22E11; source: E. coli TG1, periplasmic extract (screening); purified (Ni-NTA; Superdex75 for crystallization); not shown: c-myc, C-terminal, kept

IC50 of inhibition of mIL22 secretion by mouse splenocytes stimulated with 19 pM hIL23; blocks IL23/IL23R [2]: 19 pM | binding result [3]: binds | binding result [4]: no binding | Kd [5]: 0.6 nM | koff [5]: 0.00018 s⁻¹ | kon [5]: 320000 M⁻¹ s⁻¹ | binding result [6]: binds | IC50 [8]: 0.11 nM
B2: nanobody 37D5 (VHH)
VHH: EVQLVESGGGLVQPGGSLRLSCAASGFTLDYLAIGWFRQAPGKEREGVSCVSSSGQYTYYADSVKGRFTISRDNAESTVYLQMNSLKPEDTAVYYCATDPECYRVRGYYNGEYDYWGQGTQVTVSS
notes: nanobody 37D5 (llama VHH); both add C-terminal c-myc and hexa-histidine tags; also called p19+ nanobody 37D5; source: E. coli TG1, periplasmic extract (screening); purified (Ni-NTA; Superdex75 for crystallization); not shown: c-myc, C-terminal, kept

binding result [11]: binds
B6: p19 subunit of human interleukin 23 (natural protein, UniProt Q9NPF7 20-189, looked up)
chain: T8 sequence (looked up) 1
notes: interleukin 23 subunit p19, human; never handled apart from p40; also called IL23p19; hIL23 p19 subunit; source: bought as part of hIL23 (R&D Systems Inc. or eBioscience)
